T1: Mutant C87S NGAL rAg (CHO cell clone #734) (human, UniProt P80188 21-198, glycosylated (CHO))
T1 construct: also called NGAL mutant C87S antigen; mutant C87S NGAL rAg CHO 734
T1 chain: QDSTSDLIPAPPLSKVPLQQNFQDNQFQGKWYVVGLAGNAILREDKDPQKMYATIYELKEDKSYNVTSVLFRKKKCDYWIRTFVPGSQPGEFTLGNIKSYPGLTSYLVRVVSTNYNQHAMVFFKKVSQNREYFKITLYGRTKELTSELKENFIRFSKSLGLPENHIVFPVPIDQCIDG

T2: human NGAL (C87S) produced in E. coli, NGAL(+)mut8 (human, UniProt P80188 21-198, 15N/2H or 13C/15N isotope label (NMR, Example 8); BHQ-10S quencher label (KD titrations, Example 9))
T2 construct: also called BHQ-NGAL; isotope-labeled human NGAL
T2 chain: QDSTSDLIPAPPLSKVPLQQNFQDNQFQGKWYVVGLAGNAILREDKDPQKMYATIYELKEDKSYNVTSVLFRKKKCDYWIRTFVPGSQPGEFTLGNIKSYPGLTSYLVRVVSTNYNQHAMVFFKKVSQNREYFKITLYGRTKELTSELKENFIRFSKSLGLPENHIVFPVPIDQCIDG


Key:
[1] = molecular target: T3, Wild-type NGAL rAg (CHO clone #662) (human, UniProt P80188 21-198, glycosylated (CHO)); assay: KinExA, IgG in solution
T3 construct: also called NGAL wild-type antigen; wild-type NGAL rAg CHO 662
Procedure: (§1) The amount of free binding sites was determined by injecting the antibody/human NGAL reaction mixture over human NGAL immobilized on solid-phase Polymethyl-methacrylate (PMMA) beads. The free anti-NGAL antibody bound to the human NGAL coated beads were subsequently detected using the fluorescent CY5-conjugated goat anti-mouse polyclonal antibody (GAM-Cy5). The degree of GAM-Cy5 bound was proportional to the amount of anti-NGAL IgG bound to the human NGAL-coated beads. The KD was determined by analyzing the amount of free binding sites versus the amount of antigen present in the reaction sample using software provided by the manufacturer (Sapidyne Instruments, Boise, Id.). Experiments were performed in a PBS, pH 7.4, and 1% BSA reaction diluent.

[2] = molecular target: T1, Mutant C87S NGAL rAg (CHO cell clone …); assay: KinExA, IgG in solution
Procedure: as §1

[3] = molecular target: T4, wild-type NGAL antigen displayed on yeast (AGA2 fusion) (human, UniProt P80188 21-198); assay: flow cytometry, mAb titrated on yeast displaying NGAL
T4 construct: also called WT
Procedure: The side chain of each of the NGAL rAg residues identified from the epitope selections was altered by site-directed mutagenesis to alanine to confirm the functional epitope (direct contact residues) of each NGAL mAb subclone.
The change in Gibbs free binding energy (ΔΔG_Ala-WT) was determined to assess the energetic impact of each alanine substitution for mAb binding. The change in Gibbs free binding energy upon alanine substitution was calculated using the following equation [2],
For these experiments, observed fluorescence (F) was used to solve for KD using equation [1]. The KD derived from equation [1] one was then used in equation [2] to derive the change in Gibbs free binding energy upon alanine substitution. The KD is read from the abscissa of each of the curves at the inflection point.

[4] = molecular target: T2, human NGAL (C87S) produced in E. coli, …; assay: DC-FCCS sandwich formation in solution; second antibody mAb 809
Procedure: (§2) Samples were placed in a 96-microwell optical bottom plate (Nalge Nunc International, Rochester, N.Y.). The excitation wavelength was set at 810 nm, 3 mW on the sample. Sampling rate was set at 200 KHz and 10 million points were collected for each measurement. Each sample was measured twice. Experiments were performed on each sample after one-hour incubation.
(§3) Labeled antibodies were mixed at equal concentration (40 μL of 10 nM mAbs) and ligand (15 nM NGAL) was added to the solution. Cross-correlation curves before and after adding NGAL were calculated from the data sets acquired in each channel and the data were normalized.
(§4) For illustration purposes, a relative number was assigned to each antibody pair, which, in fact, is the ratio of Gx(0) values before and after the addition of NGAL to the antibodies (Table 13). All ratio values were corrected for the background. A value of “1” indicates no sandwich formation, values between 1.1 and 2.5 indicate a poor sandwich formation, and all values above 2.6 indicate productive antibody pairing.

[5] = molecular target: T2, human NGAL (C87S) produced in E. coli, …; assay: DC-FCCS sandwich formation in solution; second antibody mAb 903
Procedure: as §2, §3, §4

[6] = molecular target: T2, human NGAL (C87S) produced in E. coli, …; assay: DC-FCCS sandwich formation in solution; second antibody mAb 2322
Procedure: as §2, §3, §4

[7] = molecular target: T2, human NGAL (C87S) produced in E. coli, …; assay: fluorescence quenching titration: ALEXA 488-mAb with BHQ-NGAL in solution
Procedure: (§5) The equilibrium dissociation constants (KD) of NGAL and six anti-NGAL antibodies were measured in direct binding experiments. […] After 30 minutes incubation, all samples were measured on an SLM 8100 photon counting spectrofluorimeter. Samples were excited at 480 nm, and the emission was collected through a 530 nm (30 nm bandwidth) interference filter (Chroma Technology Corp., Rockingham, Vt.). All binding measurements were performed in 10 mM HEPES buffer, pH 7.4, containing 0.15 M NaCl, 3 mM EDTA, and 0.005% surfactant P20.
(§6) where Ligandₜₒₜₐₗ and ABSₜₒₜₐₗ are the BHQ-NGAL concentration and total antibody binding sites, respectively, and Fbound is the fraction of bound antibody sites. The binding data were fitted with a simple binding model to obtain the equilibrium dissociation constant (KD) according to equation [4]: […]

[8] = molecular target: T2, human NGAL (C87S) produced in E. coli, …; assay: fluorescence quenching titration in solution: ALEXA 488-labelled mAb at 0.05 nM, BHQ-labelled NGAL varied, fraction bound against free BHQ-NGAL
Procedure: as §5, §6

Kd [1] [nM] | Kd [2] [nM] | Kd [3] [nM] | ΔKD (KD against KD of WT) [3] [fold] | ΔΔG Ala-WT [3] [kcal/mol] | ratio of Gx(0) before and after adding NGAL [4] | ratio of Gx(0) before and after adding NGAL [5] | ratio of Gx(0) before and after adding NGAL [6] | Kd [7] [nM] | EC50 (read off the curve) [8] [nM] | Binder
0.32 | 1.1 | 0.204 | 1 | 0 | 3 | 1 | 3.7 | 1.2 | ~1 | anti-NGAL monoclonal antibody 1-903-430 (antibody, V domains shown) VH: KIQLVQSGPELKKPGETVKISCKASGYTFTNYGMNWVKQAPGKGLKWMGWININTGEPTYAEEFKGRFAFSLETSATTAFLQINNLKNEDTATYLCARDSYSGGFDYWGQGTIVTVSS VL: DIVMTQSPSSLSVSAGEKVTLSCKSSQSLLISGDQKNYLAWYQQKPGQPPKLLIYGASTRDSGVPDRFTGSGSGADFTLTISSVQAEDLAVYYCQNDHSFPPTFGAGTKLELKR
0.024 | 0.023 | 0.0081 | 1 | 0 | 1.5 | 3.5 | 0.7 | 0.06 | ~0.06 | anti-NGAL monoclonal antibody 1-2322-455 (antibody, V domains shown) VH: EVQLVESGGGLVQPGGSLKLSCAASGFTFNNYYMSWVRQTPERRLEWVAYISSSGGSTYYSDSVRGRFTISRDTARNTLYLQMTSLKSEDTAMYYCARHFGDYSYFDYWGQGTTLTVSS VL: DIQMTQSPASLSASVGETVTITCRASENFYSYLAWYQQKQGKSPQLLVYNAKTLAEGVPSRFSGSGSGTQFSLKINSLQPEDFGTYYCQHHYDIPLTFGAGTKLELKR

Reference: patent publication US20090263894A1 (AbbVie / Abbott, published 2009)
